The conditions of data set [1]: rat, in vivo.
Protocol: (§4) Blood samples were taken on the day of dosing for each rat per group at pre-dose (0 minutes), 5, 20, 40, 60, and 120 minutes post dose. […] Body weights ranged from 214-250 grams.
The nature of data set [2]: Mean serum insulin levels and relative bioavailability of substituted DKP/insulin powders (Example 6, FIG. 10, Table 2). From the text: (§1) For this study, substituted diketopiperazine/insulin powders were made each containing either (E)-3-(4-(3,6-dioxopiperazin-2-yl)butylcarbamoyl)-acrylic acid (Compound 3) and insulin; or (E)-3-(3-(3,6-dioxopiperazin-2-yl)propylcarbamoyl)-acrylic acid (Compound 4) and insulin; or (E)-3-(4-(5-isopropyl-(3,6-dioxopiperazin-2-yl)butylcarbamoyl)-acrylic acid (Compound 5) and insulin, and administered to each of 3 female Sprague Dawley rats per group via pulmonary insufflation.
(§2) The rats were divided into 5 groups as follows. Group 1 rats received a formulation containing Compound 3 with an 11.4% insulin content (Formulation 3) via pulmonary insufflation. Group 2 rats were administered a formulation Compound 3 with a 25% insulin content (Formulation 3) by pulmonary insufflation. Group 3 rats received a formulation of Compound 4 with an 11.4% insulin content (Formulation 4) by pulmonary insufflation. Group 4 rats received a formulation of Compound 5 with 11.4% insulin content by pulmonary insufflation. Group 5 rats received insulin (0.5 U/kg) via subcutaneous administration.
(§3) Blood samples were taken on the day of dosing for each rat per group before (0 minutes) and 10, 20, 40, and 60 minutes after administration of the formulations, except for the insulin control group (group 5), for which an additional sample was collected at 120 minutes after dosing. At each time point, approximately 10 μL of whole blood was collected from the lateral tail vein of rats in each group and analyzed for measurements of insulin and glucose concentrations.

Data set [3] can be described thus: Mean serum insulin concentrations in rats administered DKP and insulin powders (Example 5, FIG. 8). As to conditions: 20 minutes post dose; 1.4 mg insulin in saline; pulmonary liquid instillation (INS).
Protocol: as §4
Data set [4] in a line: Mean glucose levels in rats administered various substituted DKP/insulin powders (Example 6, FIG. 9). It is filed as in vivo, female Sprague Dawley rats. The note with it: insulin 0.5 U/kg subcutaneous, pre-dose 132 mg/dL.
Excerpt: as §1, §2, §3

[5] abbreviates: serum insulin, insulin 0.5 U/kg subcutaneous.

On to `O=C(O)/C=C/C(=O)NCCCC1NC(=O)C(CCCNC(=O)/C=C/C(=O)O)NC1=O` (stereo not drawn) [Compound 2, (E)-3,6-bis[(N-carboxy-2-propenyl)-amidopropyl]-2,5-diketopiperazine], for which the insulin concentration in data set [1] was 505 μU/mL.
Regarding insulin, the serum insulin concentration in data set [2] (20 minutes post dose, insulin by subcutaneous injection) is 9360 μU/mL; in data set [3] it was 6703 μU/mL. The compound also came in with a BIOAVAILABILITY in data set [2] (insulin 0.5 U/kg subcutaneous (reference)) of 100%. In data set [2] (setting [5]), the Tmax was 20 min. This compound also yielded a T½ in data set [2] (setting [5]) of 9.18 min. Further, the blood glucose level in data set [4] (40 minutes post dose) came out at 43 mg/dL; in data set [4] (1 hour post dose) it was 42 mg/dL; in data set [4] (2 hours post dose), 34 mg/dL.

The values are drawn from patent publication US10172850B2, “Substituted diketopiperazine analogs for use as drug delivery agents” (MannKind Corporation, priority 2008, dated 2019).
